This note sets out measurements from paper PMC6746865, “Identification of telomerase RNAs in species of the Yarrowia clade provides insights into the co-evolution of telomerase, telomeric repeats and telomere-binding proteins”.

This series concerns the target T1, Tay1p (YlTay1p) (Yarrowia lipolytica, UniProt Q6C9I6 1-406).
T1 sequence: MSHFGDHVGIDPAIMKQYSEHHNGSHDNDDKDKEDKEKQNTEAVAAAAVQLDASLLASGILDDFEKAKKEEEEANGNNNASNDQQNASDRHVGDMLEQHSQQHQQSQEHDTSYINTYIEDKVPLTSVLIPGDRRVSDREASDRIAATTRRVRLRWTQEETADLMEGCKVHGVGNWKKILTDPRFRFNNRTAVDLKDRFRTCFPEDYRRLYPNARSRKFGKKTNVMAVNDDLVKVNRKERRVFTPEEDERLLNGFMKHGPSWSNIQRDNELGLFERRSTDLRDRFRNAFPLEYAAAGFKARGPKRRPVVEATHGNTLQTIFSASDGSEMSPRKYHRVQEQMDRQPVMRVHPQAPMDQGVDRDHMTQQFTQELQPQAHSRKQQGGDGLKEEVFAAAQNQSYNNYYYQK
The series is described as follows: EMSA; 20 mM HEPES-NaOH pH 7.3, 100 mM NaCl, 16 nM dsDNA probe (3-fold molar excess of unlabelled C strand used in annealing), 10 min at room temperature; 6% PAGE in cold 0.5x TBE. The conditions noted are these: protein: recombinant; label: 5'-32P on G strand; blunt.

B1: Y. lipolytica telomeric probe YlipTEL (2 repeats) (dsDNA)
DNA 1: TTAGTCAGGGTTAGTCAGGG
DNA 2: CCCTGACTAACCCTGACTAA
Turning to B1, the binding result is recorded as “binds”.
